Reference: patent US5985836A, “Alpha-1 proteinase inhibitor binding peptides” (Bayer Corporation, priority 1998, dated 1999)
Ends that are not written are not given here.

How the values were obtained:
A1PI [1] = biological target: T1, A1PI (Homo sapiens, UniProt P01009); experiment: A1PI binding on peptide-resin column, injection of 1 mg A1PI in equilibration buffer; settings: for % of Total A1PI Eluted by Fraction (Based on Absorbance at 280 nm), 1M NaCl / % of Total A1PI Eluted by Fraction (Based on Absorbance at 280 nm), 2% Acetic Acid / % of Total A1PI Eluted by Fraction (Based on Absorbance at 280 nm), Flowthrough: 1 mg A1PI; for Percent AlPI Eluted by Fraction, 1M NaCl / Percent AlPI Eluted by Fraction, 2% Acetic Acid / Percent AlPI Eluted by Fraction, Flowthrough: 1 mg AlPI
T1 construct: Human plasma is currently the only approved source of therapeutic AlPI
T1 sequence (P01009 25-418): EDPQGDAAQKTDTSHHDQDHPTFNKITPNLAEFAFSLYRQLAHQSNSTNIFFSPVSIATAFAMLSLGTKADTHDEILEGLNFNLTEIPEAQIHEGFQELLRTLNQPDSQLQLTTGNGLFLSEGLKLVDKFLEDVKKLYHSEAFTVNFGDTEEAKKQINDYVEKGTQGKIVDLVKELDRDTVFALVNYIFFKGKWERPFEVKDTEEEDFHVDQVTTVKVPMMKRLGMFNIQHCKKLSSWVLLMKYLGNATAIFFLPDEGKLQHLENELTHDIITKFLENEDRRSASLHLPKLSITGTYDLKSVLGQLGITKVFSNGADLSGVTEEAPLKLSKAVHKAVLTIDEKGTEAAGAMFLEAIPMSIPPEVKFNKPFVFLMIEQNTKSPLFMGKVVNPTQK
Summary of the method: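 Peptides synthesized on A-Totda-Toyopearl chelate resin (0.1 mmole/g) packed in 0.4×5 cm columns; 1 mg A1PI injected in equilibration buffer at 4 °C or 20 °C, 865 or 523 μl/min. Flowthrough, 1M/3M NaCl washes and 2% acetic acid eluate quantified by A280 or immunonephelometry as percent of total eluted.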

A1PI [2] = biological target: T1, A1PI; experiment: Purification of A1PI from Effluent II+III on peptide column, A1PI mass balance; assay type: binding; settings: 1 ml Eff. II+III, 4° C.; for Percent Eluted by Fraction, 1M NaCl / Percent Eluted by Fraction, 2% Acetic Acid / Percent Eluted by Fraction, Flowthrough: A1PI
Summary of the method: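 First, 1 ml of the ethanolic Cohn intermediate (20% ethanol, ~1 mg/ml A1PI) is injected and held for a 10 min residence time. Columns are then eluted stepwise at a constant 865 μl/min with 1M NaCl, 3M NaCl and finally 2% acetic acid, all at 4° C.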

[3] = peptide density 6 μmol/g, 4° C.
[4] = peptide density 6 μmol/g, 20° C.
[5] = peptide density 17 μmol/g, 4° C.
[6] = peptide density 17 μmol/g, 20° C.
[7] = peptide density 25 μmol/g, 4° C.
[8] = peptide density 25 μmol/g, 20° C.
[9] = peptide density 39 μmol/g, 4° C.
[10] = peptide density 39 μmol/g, 20° C.
[11] = peptide density 54 μmol/g, 4° C.
[12] = peptide density 54 μmol/g, 20° C.
[13] = peptide density 58 μmol/g, 4° C.
[14] = peptide density 58 μmol/g, 20° C.
[15] = peptide density 99 μmol/g, 4° C.
[16] = peptide density 99 μmol/g, 20° C.
[17] = peptide density 135 μmol/g, 4° C.
[18] = peptide density 135 μmol/g, 20° C.
[19] = sequence truncations, 4° C., immunonephelometry
[20] = sequence truncations, 20° C., immunonephelometry
[21] = Table 11, * Below detection limit
[22] = Table 13, * Below detection limit

% of Total A1PI Eluted by Fraction (Based on Absorbance at 280 nm), 1M NaCl (A1PI [1]; Trp position mutations, 4° C.): 3% | % of Total A1PI Eluted by Fraction (Based on Absorbance at 280 nm), 2% Acetic Acid (A1PI [1]; Trp position mutations, 4° C.): 97% | % of Total A1PI Eluted by Fraction (Based on Absorbance at 280 nm), Flowthrough (A1PI [1]; Trp position mutations, 4° C.): 0% | % of Total A1PI Eluted by Fraction (Based on Absorbance at 280 nm), 1M NaCl (A1PI [1]; Trp position mutations, 20° C.): 8% | % of Total A1PI Eluted by Fraction (Based on Absorbance at 280 nm), 2% Acetic Acid (A1PI [1]; Trp position mutations, 20° C.): 92% | % of Total A1PI Eluted by Fraction (Based on Absorbance at 280 nm), Flowthrough (A1PI [1]; Trp position mutations, 20° C.): 0% | % of Total A1PI Eluted by Fraction (Based on Absorbance at 280 nm), 1M NaCl (A1PI [1]; VIFLVR point mutations, 4° C.): 3% | % of Total A1PI Eluted by Fraction (Based on Absorbance at 280 nm), 2% Acetic Acid (A1PI [1]; VIFLVR point mutations, 4° C.): 97% | % of Total A1PI Eluted by Fraction (Based on Absorbance at 280 nm), Flowthrough (A1PI [1]; VIFLVR point mutations, 4° C.): 0% | % of Total A1PI Eluted by Fraction (Based on Absorbance at 280 nm), 1M NaCl (A1PI [1]; VIFLVR point mutations, 20° C.): 8% | % of Total A1PI Eluted by Fraction (Based on Absorbance at 280 nm), 2% Acetic Acid (A1PI [1]; VIFLVR point mutations, 20° C.): 92% | % of Total A1PI Eluted by Fraction (Based on Absorbance at 280 nm), Flowthrough (A1PI [1]; VIFLVR point mutations, 20° C.): 0% | Percent AlPI Eluted by Fraction, 1M NaCl (A1PI [1]; [3]): 21% | Percent AlPI Eluted by Fraction, 2% Acetic Acid (A1PI [1]; [3]): 0% | Percent AlPI Eluted by Fraction, Flowthrough (A1PI [1]; [3]): 87% | Percent AlPI Eluted by Fraction, 1M NaCl (A1PI [1]; [4]): 13% | Percent AlPI Eluted by Fraction, 2% Acetic Acid (A1PI [1]; [4]): 0% | Percent AlPI Eluted by Fraction, Flowthrough (A1PI [1]; [4]): 79% | Percent AlPI Eluted by Fraction, 1M NaCl (A1PI [1]; [5]): 10% | Percent AlPI Eluted by Fraction, 2% Acetic Acid (A1PI [1]; [5]): 2% | Percent AlPI Eluted by Fraction, Flowthrough (A1PI [1]; [5]): 80% | Percent AlPI Eluted by Fraction, 1M NaCl (A1PI [1]; [6]): 18% | Percent AlPI Eluted by Fraction, 2% Acetic Acid (A1PI [1]; [6]): 22% | Percent AlPI Eluted by Fraction, Flowthrough (A1PI [1]; [6]): 68% | Percent AlPI Eluted by Fraction, 1M NaCl (A1PI [1]; [7]): 1% | Percent AlPI Eluted by Fraction, 2% Acetic Acid (A1PI [1]; [7]): 43% | Percent AlPI Eluted by Fraction, Flowthrough (A1PI [1]; [7]): 57% | Percent AlPI Eluted by Fraction, 1M NaCl (A1PI [1]; [8]): 0% | Percent AlPI Eluted by Fraction, 2% Acetic Acid (A1PI [1]; [8]): 72% | Percent AlPI Eluted by Fraction, Flowthrough (A1PI [1]; [8]): 28% | Percent AlPI Eluted by Fraction, 1M NaCl (A1PI [1]; [9]): 4% | Percent AlPI Eluted by Fraction, 2% Acetic Acid (A1PI [1]; [9]): 96% | Percent AlPI Eluted by Fraction, Flowthrough (A1PI [1]; [9]): 0% | Percent AlPI Eluted by Fraction, 1M NaCl (A1PI [1]; [10]): 0% | Percent AlPI Eluted by Fraction, 2% Acetic Acid (A1PI [1]; [10]): 100% | Percent AlPI Eluted by Fraction, Flowthrough (A1PI [1]; [10]): 0% | Percent AlPI Eluted by Fraction, 1M NaCl (A1PI [1]; [11]): 0% | Percent AlPI Eluted by Fraction, 2% Acetic Acid (A1PI [1]; [11]): 100% | Percent AlPI Eluted by Fraction, Flowthrough (A1PI [1]; [11]): 0% | Percent AlPI Eluted by Fraction, 1M NaCl (A1PI [1]; [12]): 0% | Percent AlPI Eluted by Fraction, 2% Acetic Acid (A1PI [1]; [12]): 100% | Percent AlPI Eluted by Fraction, Flowthrough (A1PI [1]; [12]): 0% | Percent AlPI Eluted by Fraction, 1M NaCl (A1PI [1]; [13]): 4% | Percent AlPI Eluted by Fraction, 2% Acetic Acid (A1PI [1]; [13]): 96% | Percent AlPI Eluted by Fraction, Flowthrough (A1PI [1]; [13]): 0% | Percent AlPI Eluted by Fraction, 1M NaCl (A1PI [1]; [14]): 0% | Percent AlPI Eluted by Fraction, 2% Acetic Acid (A1PI [1]; [14]): 100% | Percent AlPI Eluted by Fraction, Flowthrough (A1PI [1]; [14]): 0% | Percent AlPI Eluted by Fraction, 1M NaCl (A1PI [1]; [15]): 0% | Percent AlPI Eluted by Fraction, 2% Acetic Acid (A1PI [1]; [15]): 100% | Percent AlPI Eluted by Fraction, Flowthrough (A1PI [1]; [15]): 0% | Percent AlPI Eluted by Fraction, 1M NaCl (A1PI [1]; [16]): 0% | Percent AlPI Eluted by Fraction, 2% Acetic Acid (A1PI [1]; [16]): 93% | Percent AlPI Eluted by Fraction, Flowthrough (A1PI [1]; [16]): 7% | Percent AlPI Eluted by Fraction, 1M NaCl (A1PI [1]; [17]): 0% | Percent AlPI Eluted by Fraction, 2% Acetic Acid (A1PI [1]; [17]): 100% | Percent AlPI Eluted by Fraction, Flowthrough (A1PI [1]; [17]): 0% | Percent AlPI Eluted by Fraction, 1M NaCl (A1PI [1]; [18]): 0% | Percent AlPI Eluted by Fraction, 2% Acetic Acid (A1PI [1]; [18]): 95% | Percent AlPI Eluted by Fraction, Flowthrough (A1PI [1]; [18]): 5% | Percent AlPI Eluted by Fraction, 1M NaCl (A1PI [1]; sequence order, 4° C.): 3% | Percent AlPI Eluted by Fraction, 2% Acetic Acid (A1PI [1]; sequence order, 4° C.): 97% | Percent AlPI Eluted by Fraction, Flowthrough (A1PI [1]; sequence order, 4° C.): 0% | Percent AlPI Eluted by Fraction, 1M NaCl (A1PI [1]; sequence order, 20° C.): 7% | Percent AlPI Eluted by Fraction, 2% Acetic Acid (A1PI [1]; sequence order, 20° C.): 93% | Percent AlPI Eluted by Fraction, Flowthrough (A1PI [1]; sequence order, 20° C.): 0% | Percent AlPI Eluted by Fraction, 1M NaCl (A1PI [1]; [19]): 3% | Percent AlPI Eluted by Fraction, 2% Acetic Acid (A1PI [1]; [19]): 97% | Percent AlPI Eluted by Fraction, Flowthrough (A1PI [1]; [19]): 0% | Percent AlPI Eluted by Fraction, 1M NaCl (A1PI [1]; [20]): 7% | Percent AlPI Eluted by Fraction, 2% Acetic Acid (A1PI [1]; [20]): 93% | Percent AlPI Eluted by Fraction, Flowthrough (A1PI [1]; [20]): 0% | Mass A1PI per Eluate Fraction, 2% Acetic Acid (A1PI [2]; [21]): 0.57 mg | Mass A1PI per Eluate Fraction, Flowthrough (A1PI [2]; [21]): 0.13 mg | Percent Eluted by Fraction, 1M NaCl (A1PI [2]; Table 11): 0% | Percent Eluted by Fraction, 2% Acetic Acid (A1PI [2]; Table 11): 82% | Percent Eluted by Fraction, Flowthrough (A1PI [2]; Table 11): 18% | Mass A1PI per Eluate Fraction, 1M NaCl (A1PI [2]; [22]): 0.07 mg | Mass A1PI per Eluate Fraction, 2% Acetic Acid (A1PI [2]; [22]): 0.91 mg | Mass A1PI per Eluate Fraction, Flowthrough (A1PI [2]; [22]): 0.32 mg | Percent Eluted by Fraction, 1M NaCl (A1PI [2]; Table 13): 5% | Percent Eluted by Fraction, 2% Acetic Acid (A1PI [2]; Table 13): 70% | Percent Eluted by Fraction, Flowthrough (A1PI [2]; Table 13): 25%
Substance: VIFLVR
